Experimental findings from paper PMC12053622 (2025) are described below.

Holding throughout (test): BLI
On the technique in general: BLI is a label-free optical method that tracks binding on a fibre tip over time.

In test [1] the target is T1, hMCT1/hBSG (Homo sapiens).
T1 chain 1: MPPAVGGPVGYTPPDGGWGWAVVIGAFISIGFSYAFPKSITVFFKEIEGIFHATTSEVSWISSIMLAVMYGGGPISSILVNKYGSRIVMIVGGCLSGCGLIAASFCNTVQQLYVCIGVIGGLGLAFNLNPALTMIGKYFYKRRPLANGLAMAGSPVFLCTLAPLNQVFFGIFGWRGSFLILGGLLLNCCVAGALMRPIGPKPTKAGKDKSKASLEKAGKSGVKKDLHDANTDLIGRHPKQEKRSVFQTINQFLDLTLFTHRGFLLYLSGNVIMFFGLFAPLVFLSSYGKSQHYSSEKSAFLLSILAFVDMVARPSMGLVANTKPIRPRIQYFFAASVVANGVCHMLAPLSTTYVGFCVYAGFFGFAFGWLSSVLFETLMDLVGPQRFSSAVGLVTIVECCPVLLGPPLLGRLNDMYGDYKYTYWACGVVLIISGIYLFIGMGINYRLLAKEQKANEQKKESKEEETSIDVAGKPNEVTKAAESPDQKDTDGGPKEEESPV
T1 chain 2: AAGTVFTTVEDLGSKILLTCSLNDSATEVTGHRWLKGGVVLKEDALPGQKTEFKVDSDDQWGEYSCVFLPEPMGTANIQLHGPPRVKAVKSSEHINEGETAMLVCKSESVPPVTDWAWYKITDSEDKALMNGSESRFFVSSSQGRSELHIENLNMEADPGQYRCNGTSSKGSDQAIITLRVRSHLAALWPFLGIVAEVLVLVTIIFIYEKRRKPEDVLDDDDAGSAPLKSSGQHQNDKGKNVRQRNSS

The target of test [2] is T1, hMCT1/hBSG.
For the next test, the target named is T2, WT mMCT1/mBSG complex (mouse, UniProt P53986 1-493).
T2 chain 1: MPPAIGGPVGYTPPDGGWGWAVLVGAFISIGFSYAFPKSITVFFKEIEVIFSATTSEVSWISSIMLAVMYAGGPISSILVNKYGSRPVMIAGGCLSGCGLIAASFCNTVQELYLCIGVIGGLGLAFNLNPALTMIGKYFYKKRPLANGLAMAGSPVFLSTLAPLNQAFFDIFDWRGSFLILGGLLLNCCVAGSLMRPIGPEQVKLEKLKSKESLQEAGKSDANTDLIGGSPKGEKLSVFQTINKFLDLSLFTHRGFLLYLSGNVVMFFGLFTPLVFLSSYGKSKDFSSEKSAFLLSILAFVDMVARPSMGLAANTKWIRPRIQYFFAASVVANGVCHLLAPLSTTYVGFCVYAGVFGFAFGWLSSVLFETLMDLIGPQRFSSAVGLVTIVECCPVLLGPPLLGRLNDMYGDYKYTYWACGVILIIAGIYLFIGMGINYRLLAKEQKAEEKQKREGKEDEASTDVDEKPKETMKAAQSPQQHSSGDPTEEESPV
T2 chain 2: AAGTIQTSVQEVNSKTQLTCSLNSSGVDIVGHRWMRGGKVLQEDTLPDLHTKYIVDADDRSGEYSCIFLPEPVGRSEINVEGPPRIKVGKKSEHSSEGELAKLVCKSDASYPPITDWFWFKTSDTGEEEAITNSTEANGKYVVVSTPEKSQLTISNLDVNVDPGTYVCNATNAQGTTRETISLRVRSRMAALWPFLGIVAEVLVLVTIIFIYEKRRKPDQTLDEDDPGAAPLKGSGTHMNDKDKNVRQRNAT

B1: 6E7F1 monoclonal antibody (antibody, V domains shown)
VH: QVQLQQPGAELVKPGASVNLSCKASGYTFTNYWIHWVKQRPGQGLEWIGMIHPNSGTINYNEKFKTKATLTVDKSSSTAYMQLSSLTSEDSAVYYCARVGTGSLDYWGQGTSVTVSS
VL: DIVMTQSPATLSVTPGDRVSLSCRASQSISDYLHWYQQKSHESPRLLIKYVSQSISGIPSRFSGSGSGSYFTLSIDSVEPEDVGVYYCQNGHRFPYTFGGGTKLEIK
modifications: Full-length hMCT1 with hBSG isoform 2 (limits not given; signal peptide 1-21 removed by convention); Ig-domain disulfides; N-glycosylated BSG if expressed in mammalian cells
Consider B1, for which, in the test with hMCT1/hBSG [1], the Kd (usually a measure of binding affinity in units of concentration) is 4.41 nM. The off-rate constant (koff) – broadly, the rate constant with which the complex falls apart – in the test with hMCT1/hBSG [2] turned out to be 0.000183 s⁻¹.

B2: 6E7F1 monoclonal antibody (antibody, V domains shown)
VH: B1 VH
VL: B1 VL
As for B2, the equilibrium dissociation constant (Kd) with WT mMCT1/mBSG complex stood at 0.421 nM.
